Results on six molecules are retold here after patent US20100104509A1, “HUMAN ANTIBODIES THAT BIND CD19 AND USES THEREOF” (Medarex, Inc., priority 2006, published 2010).

Data set [1] can be described thus: Capillary isoelectric focusing. The class given is physicochemical. Conditions: capillary isoelectric focusing kit assay; listed as fucosylated 21D4a.
The target in the next data set is T1, Raji B cell line (Homo sapiens, UniProt P15391).
T1 construct: the CD19 protein is expressed on the surface of tumor cell lines of B cell origin; host or cells: Raji (human Burkitt's lymphoma B cell line)
T1 sequence (P15391 20-556): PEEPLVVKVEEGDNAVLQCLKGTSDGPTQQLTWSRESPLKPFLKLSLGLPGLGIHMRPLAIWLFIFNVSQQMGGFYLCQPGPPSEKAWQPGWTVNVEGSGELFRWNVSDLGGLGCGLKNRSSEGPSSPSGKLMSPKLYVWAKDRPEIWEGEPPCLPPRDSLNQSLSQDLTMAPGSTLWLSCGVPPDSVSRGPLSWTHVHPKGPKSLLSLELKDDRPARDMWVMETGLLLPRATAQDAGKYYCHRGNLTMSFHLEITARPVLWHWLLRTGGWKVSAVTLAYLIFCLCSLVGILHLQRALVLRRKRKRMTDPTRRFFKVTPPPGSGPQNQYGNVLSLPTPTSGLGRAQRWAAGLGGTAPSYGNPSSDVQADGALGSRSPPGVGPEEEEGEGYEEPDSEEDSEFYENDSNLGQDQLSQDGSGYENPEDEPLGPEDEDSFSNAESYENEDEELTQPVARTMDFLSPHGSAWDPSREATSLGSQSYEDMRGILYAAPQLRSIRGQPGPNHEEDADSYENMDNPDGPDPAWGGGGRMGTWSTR
The experiment in a line: Flow cytometry binding to Raji cells. How it is done: Binding of the CD19 HuMAbs by flow cytometry to the B cell tumor lines Raji and Daudi, or to a CHO-CD19 transfected cell line was assessed. CHO cells were transfected with an expression plasmid containing the full length cDNA encoding the transmembrane form of CD19. […] A known murine anti-CD19 antibody was used as a positive control. The cells were washed and detected by either a phycoerythrin-labeled anti-human or anti-mouse secondary antibody and analyzed by flow cytometry. The results for binding to the CHO-CD19 cell line, Daudi B cell line, Raji B cell line and an expanded binding set against the Raji B cell line are shown in FIGS. 25A, 25B, 25C and 25D, respectively. […] All results are shown as measured by the geometric mean fluorescent intensity (GMFI) of staining.
(In general: Flow cytometry measures light scatter and fluorescence of single cells or particles in a stream.)

Data set [2] in a line: Chemical denaturation by fluorescence spectroscopy. The class given is physicochemical. Conditions: guanidinium hydrochloride in PBS, 24 hours, 2 μM antibody. How it is done: The stability of anti-CD19 monoclonal antibodies were compared by measuring the midpoint of chemical denaturation by fluorescence spectroscopy.
Fluorescence measurements of chemical denaturation were performed on a SPEX Fluorolog 3.22 with a Micromax plate reader (SPEX, Edison, N.J.). The measurements were performed on antibody samples that had been left for 24 hours to equilibrate in 16 different concentrations of guanidinium hydrochloride in PBS buffer. The measurements were made in black, low volume, non-binding surface 384-well plates (Corning, Acton, Mass.) and required 2 μM of antibody in a well volume of 12 μL Fluorescence was excited at 280 nm and the emission spectra were measured between 300 and 400 nm. The scan speed was 1 second per nm and slits were set to 5 nm bandpass. A buffer blank was performed using PBS and automatically subtracted from the data.

The nature of data set [3]: Differential scanning calorimetry. The data set is classed as physicochemical. Conditions: 2.3 μM in PBS pH 7.4, 30 to 95° C. at 1° C./min. How it is done: The thermal stability of the anti-CD19 monoclonal antibodies were compared using calorimetric analysis of their melting temperatures.
Calorimetric measurements of melting Temperatures™ were carried out on a VP-Capillary DSC differential scanning microcalorimeter platform that is combined with an autosampler (MicroCal LLC, Northampton, Mass., USA). Sample cell volume is 0.144 mL. Denaturation data on the glycosylated and deglycosylated forms of the antibodies was obtained by heating the samples, at a concentration of 2.3 μM, from 30 to 95° C. at a rate of 1° C./min. The protein samples were present in phosphate-buffered saline (PBS) at pH 7.4. The same buffer was used in the reference cell to obtain the molar heat capacity by comparison. The observed thermograms were baseline corrected and normalized data analyzed based on a 2-state model, using the software Origin v7.0.
(In general: Differential scanning calorimetry records heat flow against a reference as temperature is scanned.)

Several values for one entry are separate records, joined by “and”; a condition that tells them apart may be missing. Equal values may be shown once.

B1: 21D4a: human monoclonal anti-CD19 antibody, VH SEQ ID NO: 1 and VL SEQ ID NO: 9 (antibody, listed as Homo sapiens, V domains shown)
VH: EVQLVQSGAEVKKPGESLKISCKGSGYSFSSSWIGWVRQMPGKGLEWMGIIYPDDSDTRYSPSFQGQVTISADKSIRTAYLQWSSLKASDTAMYYCARHVTMIWGVIIDFWGQGTLVTVSS
VL: AIQLTQSPSSLSASVGDRVTITCRASQGISSALAWYQQKPGKAPKLLIYDASSLESGVPSRFSGSGSGTDFTLTISSLQPEDFATYYCQQFNSYPFTFGPGTKVDIK
As to B1, in data set [1], the “observed pI values” is 8.44 pH and 8.21 pH. Also, the “binding by flow cytometry (GMFI)” value with Raji B cell line is given as “bound to the Raji B cell line”. Besides, the “Unfolding Midpoint” value in data set [2] was 2.97 M. In addition, the “Thermo Stability Tm1” value in data set [3] is 69.7 °C.

B2: 5G7-N19Q: 5G7 with N-I-S sequence starting at position 19 changed to Q-I-S (antibody, V domains shown)
VH: EVQLVQSGAEVKKPGESLQISCKGSGYSFTSYWIGWVRQMPGKGLEWMGIIYPGDSDTRYSPSFQGQVTISADKSINTAYLQWSSLKASDTAMYYCARGVSMIWGVIMDVWGQGTTVTVSS
VL: AIQLTQSPSSLSASVGDRVTITCRASQGISSALAWYQQKPGKAPKLLIYDASSLESGVPSRFSGSGSGTDFTLTISSLQPEDFATYYCQQFNSYPWTFGQGTKVEIK
Regarding B2, in the data set with Raji B cell line, the “binding by flow cytometry (GMFI)” value is given as “bound to the Raji B cell line”.

B3: 5G7: human monoclonal anti-CD19 antibody, VH SEQ ID NO: 5 and VL SEQ ID NO: 13 (antibody, listed as Homo sapiens, V domains shown)
VH: EVQLVQSGAEVKKPGESLNISCKGSGYSFTSYWIGWVRQMPGKGLEWMGIIYPGDSDTRYSPSFQGQVTISADKSINTAYLQWSSLKASDTAMYYCARGVSMIWGVIMDVWGQGTTVTVSS
VL: AIQLTQSPSSLSASVGDRVTITCRASQGISSALAWYQQKPGKAPKLLIYDASSLESGVPSRFSGSGSGTDFTLTISSLQPEDFATYYCQQFNSYPWTFGQGTKVEIK
For the molecule B3, the “binding by flow cytometry (GMFI)” value in the data set with Raji B cell line is on record as “bound to the Raji B cell line”. Besides, in data set [2], the “Unfolding Midpoint” value was 2.91 M. Further, in data set [3], the “Thermo Stability Tm1” value was 68.5 °C.

B4: 13F1: human monoclonal anti-CD19 antibody, VH SEQ ID NO: 6 and VL SEQ ID NO: 14 (antibody, listed as Homo sapiens, V domains shown)
VH: EVQLVQSGAEVKKPGESLQISCKGSGYTFTNYWIAWVRQMPGKGLEWMGIIYPGDSDTRYSPSFQGQVTISADKSISTAYLQWSGLKASDTAMYYCARQGYSSGWRSYYGMGVWGQGTTVTVSS
VL: AIQLTQSPSSLSASVGDRVTITCRASQGISSALAWYQQKPGKAPKLLIYDASSLESGVPSRFSGSGSGTDFTLTISSLQPEDFATYYCQQFNSYPHTFGQGTKLEIK
Turning to B4, the “binding by flow cytometry (GMFI)” value in the data set with Raji B cell line is listed as “bound to the Raji B cell line”.

B5: 5G7-N19K: 5G7 with N-I-S sequence starting at position 19 changed to K-I-S (antibody, V domains shown)
VH: EVQLVQSGAEVKKPGESLKISCKGSGYSFTSYWIGWVRQMPGKGLEWMGIIYPGDSDTRYSPSFQGQVTISADKSINTAYLQWSSLKASDTAMYYCARGVSMIWGVIMDVWGQGTTVTVSS
VL: AIQLTQSPSSLSASVGDRVTITCRASQGISSALAWYQQKPGKAPKLLIYDASSLESGVPSRFSGSGSGTDFTLTISSLQPEDFATYYCQQFNSYPWTFGQGTKVEIK
Turning to B5, the “binding by flow cytometry (GMFI)” value in the data set with Raji B cell line was “bound to the Raji B cell line”.

B6: 46E8: human monoclonal anti-CD19 antibody, VH SEQ ID NO: 7 and VL SEQ ID NO: 15 (antibody, listed as Homo sapiens, V domains shown)
VH: EVQLVQSGAEVKKPGESLQISCKGSGYTFTNYWIAWVRQMPGKGLEWMGIIYPGDSDTRYSPSFQGQVTISADKSISTAYLQWSGLKASDTAMYYCARQGYSSGWRSYYGMGVWGQGTTVTVSS
VL: AIQLTQSPSSLSASVGDRVTITCRASQGISSALAWYQQKPGKAPKLLIYDASSLESGVPSRFSGSGSGTDFTLTISSLQPEDFATYYCQQFNSYPHTFGQGTKLEIK
Turning to B6, in data set [2], the “Aggregation Peak” value is 2.16 M and the “Unfolding Midpoint” value is 2.43 M. The “Thermo Stability Tm1” value in data set [3] came out at 66.4 °C.
